# What was measured:
# [1] = biological target: Haliangium ochraceum encapsulin (Haliangium ochraceum) (UniProt D0LZ74); assay: cryo-EM structure; Loaded-Enc (3 mg/ml) vitrified; reconstruction with imposed I1 symmetry (2.5 A), then symmetry expansion and masked focused refinement of the fivefold pentamer (closed 2.2 A, open 2.4 A), Relion3.1
# [2] = biological target: Haliangium ochraceum encapsulated ferritin (Haliangium ochraceum) (UniProt D0LZ73); assay: LC-MS; purified Loaded-Enc at ~2 uM on a reverse-phase C4 column, water/acetonitrile with 0.1% formic acid; deconvoluted masses
# [3] = biological target: Haliangium ochraceum encapsulin (Haliangium ochraceum) (UniProt D0LZ74); assay: HDX-MS; Empty-Enc against Loaded-Enc nanocompartments; labelling in phosphate buffer in D2O pH 8.0 at 4 C, up to 24 hours; pepsin digestion
# [4] = biological target: Haliangium ochraceum encapsulated ferritin (Haliangium ochraceum) (UniProt D0LZ73); assay: cryo-EM structure; Loaded-Enc; asymmetric (C1) reconstruction without imposed symmetry, 3.7 A; local refinement of a single EncFtn density in CryoSPARC with PDB 5N5F docked
# [5] = biological target: Haliangium ochraceum encapsulin (Haliangium ochraceum) (UniProt D0LZ74); assay: as above; conditions: scale: EncFtn decamers per encapsulin nanocompartment
# [6] = biological target: Haliangium ochraceum encapsulated ferritin (Haliangium ochraceum) (UniProt D0LZ73); assay: SDS-PAGE; purified Loaded-Enc on 15% acrylamide SDS-PAGE, Coomassie blue stain
stoichiometry N [1],stoichiometry N [2],"reduction in hydrogen/deuterium exchange of encapsulin peptide 21-37, Loaded-Enc against Empty-Enc [3]",stoichiometry N [4],stoichiometry N [5],stoichiometry N [6],Substance
60,,,,,,Haliangium ochraceum encapsulin (from UniProt D0LZ74 1-266) (natural protein)
,2,12%,10,4,2,Haliangium ochraceum encapsulated ferritin (from UniProt D0LZ73 1-131) (enzyme)

# Source: paper PMC8791618
